Test results reported in the nanobody polyreactivity screen of Harvey et al. (2022).

Test: yeast display, Sf9 membrane polyspecificity reagent, FACS + sequencing; frameworks hold sequencing errors
How it was run: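 In a synthetic yeast display library (Saccharomyces cerevisiae BJ5465), nanobody expression was induced with galactose for 36–48 hours. FACS gates were set low and high (top ~1%) using anti-HA fluorescence for expression and streptavidin fluorescence for binding of the Sf9 membrane reagent. Each polyreactivity label is drawn from the gate of origin.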
In the case of “QVPLVESGGGLVQAGGSLRLSCAASGRTFGIYAMGWYRQEPGKERELVATISWRGGSTNYADSVKGRFTISRDNAKNTVYLQMNSLKPEDTAVYYCAADPCGFGYPYLTRGTDGYDYWGQGTQVTVSS”, the “polyreactivity (PSR sort gate)” value is reported as “low polyreactivity”. For “QVPLVESGGGLVQAGGSLRLSCAASGSICGGYAMGWYRQAPGKERELVAGITYSGDSTYYADSVKGRFTISRDNAKNTVYLQMNSLKPEDTAGYYCNADQRVDHDDFDYWGQGTQVTVSS”, the “polyreactivity (PSR sort gate)” value was “low polyreactivity”. With “QVPLVESGGGLVQAGGSLRLSCAASGSIFAPYTMGWYRQAPGKERELVAAISVTTGITYYADTLKGRFTISRDNAKNTVYLQMNSLKPEDTGVYYCAAELYKSLWYEYWGQGTQVTVSS” the “polyreactivity (PSR sort gate)” value was “low polyreactivity”. With “QVPLVESGGGLVQAGGSLRLSCAAYGFTFWTYAMGWYRQAPGKDRELVAAISRSAGRTYYADSVKGRFTISRDNAKNTVYLQMNSLKPEVSAVYYCNARAGYERYGYWGQGSQVTVSS” the “polyreactivity (PSR sort gate)” value was “high polyreactivity”. With “QVQFEESGGGLVQAGGSLRLSCAASGSTFQGYAMGWSRQAPGKERELVAAISSGGSTNYADSVKGRFTISRDNAKNTVYLQMNSLKPEDTAVYYCNVDLTTVGHWYYYRPGYDYWGQGTQVTVSS” the “polyreactivity (PSR sort gate)” value was “low polyreactivity”. With “QVQHEESGGGLVQAGGRLRLSCAASGRIFKQYALGGYRQAPGKERELVAAISVRGGITYYADSVKGRFTISRDNAMNTVYLQMNSLKPEDTAVYYCAKRSFRTHTYDYWGHGTQVTVSS” the “polyreactivity (PSR sort gate)” value was “low polyreactivity”. With “QVQHEESGGGLVQAGGSLRLSCAASGSIIRYYPMGWYRQATGKQRELVAAISRDDSRTYYADSVRGRFTISLDNAKNTVYLQMNSLKPEDTAVYYCAADSSRYTRYLYYYWGQGTQVTVSS” the “polyreactivity (PSR sort gate)” value was “high polyreactivity”. With “QVQHEESGGGLVQAGGSLRLSSAASGSTFVDYDMGCYRQAPGKVRELVAGITTGGSTNYADSVKGRFTISRDNALNTVYLQLKRLKPEDTAVYYCNSDSYTNLVPDYLYYWYEYWGQGTQVTVSS” the “polyreactivity (PSR sort gate)” value was “low polyreactivity”. In the case of “QVQHEESGVGLVQAGGRLRVSCAASGSTFAANTMGWYRTAPGKERELVAAITVRGGSTYYADSVKGRFSISRDNAKNTVYLQMISLKPEDTAVYYCAAERPPYGYLVVGFVSTQYYYWGQGTQVTVSS”, the “polyreactivity (PSR sort gate)” value is reported as “low polyreactivity”. With “QVQHGESGGGIVQAVVSLRLSCSASGFTFYYYPMGWYRQAPGKERELVAAIDTGGSTNYADSVKGRFTMSRDNAKNTVYLQMNSLKPEDTAVYYCNALQPGLGSPLGEYDYWGQGTQVTVSS” the “polyreactivity (PSR sort gate)” value was “low polyreactivity”. For “QVQHVDSGGGIVQAGGSLRLSCAPSGRTILRYTMGWYRHAPGKERELVASITRGGSSYYADSVKGRFTISRDNAKNTVYLQMNSLKPEDTAVYYCAARRYYGVYYAFYYWGQGTQVTVSS”, the “polyreactivity (PSR sort gate)” value was “high polyreactivity”. In the case of “QVQHVDSGGGLVQAGGSLRLSCAASGSTFQLYAMGRDRQAPGKERELVASISWSGGSTYYADSVKGRFTISRDNAKNTVYLQMNSLKPEDTAVYSCNDDFWWRYRPGAVFPSYGYWGQGTQVTVSS”, the “polyreactivity (PSR sort gate)” value is reported as “low polyreactivity”. In the case of “QVQHVDSGGGLVQAGGSLSLSCAASGSIFWPNTMGWYRQARGKERELVATISSGADTSYADSVKGRFTISRDNAKNTVYLQMNSLKPADTAVYYCAIRITVDDDHPRAQTFNYCGQGTQVTVSS”, the “polyreactivity (PSR sort gate)” value is reported as “low polyreactivity”. For “QVQHVDSGVCLVQAGGSLRLSCDASGSIFGSYAMGWYRQPPGKERELVAAISKSVGNTYYADSVKGRFTISRDNAKNTVYLQMNSLKPEVTAVYYCAAYGFYRWRGYDYWGQGTQVTVSS”, the “polyreactivity (PSR sort gate)” value was “high polyreactivity”. In the case of “QVQHVESAGGLVQAGGSLRLSCAASGSIFWYAMGWYRQAPGKERELVDGISRGGSTYYADSVKGRFTISRDNAKNTVYLQMNSLKPEDTAVYYFNTAGYYGTPYNYWGQGTQVTVSS”, the “polyreactivity (PSR sort gate)” value is reported as “low polyreactivity”. For “QVQHVESGGALVQAGGILRLSCAASGYTFYVYAMGWYRQAPGKERELVAAISGGSNTYYADSVKGRFTISRDNGKNTVYLQMNSLKPEDTAVYYCAKSSTTYRQRARYDYWGQGTQVTVSS”, the “polyreactivity (PSR sort gate)” value was “high polyreactivity”. In the case of “QVQHVESGGALVQAGGSLRLSCAASGSIFGDYAMGWYRQAPGKERELVAAITSDRDTYYADSVKGRFTISRDNAKNTVYLQMNSLKPEDTAVYYCNATYGGPYFIQYDYWGQGTQVTVSS”, the “polyreactivity (PSR sort gate)” value is reported as “low polyreactivity”. With “QVQHVESGGALVQAGGSLRLSCAASGSTFIKYAMGWYRQAPGKERELVAAISRSGASTYYADSVKGRFTLSRDNEKNTVYLQMKSLKPEDTAVYYCAARRRYLDHGYWGQGTQVTVSS” the “polyreactivity (PSR sort gate)” value was “high polyreactivity”. In the case of “QVQHVESGGCLVQAGGILRLSCAASGSIFQSNTMGWYRQAPGKVRELVAYISNGGTTTYANSVKGRFTISRDNAKTTVYLQMNSLKPEDTAVYYCATYYWQYYEYDYWGQGTQVTVSS”, the “polyreactivity (PSR sort gate)” value is reported as “low polyreactivity”. In the case of “QVQHVESGGCLVQAGGSLRLSCAASGLIIKSYVMGWYRQAPGKERELVAGITGSGGTTYYADSVKGRFTISRDNAKNTVDLQMNSLKPEDTAVYYCDARSRSRPKYDYWGQGTQVTVSS”, the “polyreactivity (PSR sort gate)” value is reported as “high polyreactivity”. For “QVQHVESGGCLVQAGGSLRLSCAASGSIFYRYAMGWYRQGPGKESQLVAAIRRGGSTNYADSVKGRFTISRDNAKYTVSLQMNSLKPEDTAVYYCAAGRFTYAAQSYEYWGQGTQVTVSS”, the “polyreactivity (PSR sort gate)” value was “high polyreactivity”. In the case of “QVQHVESGGGIVQAGGSLRLSCPASGSIYRKYAMGWSRQTPGKERELVAAIRSSGGSTYYADSVKGRFTISRDNAKNTVYLQMNSLKPEDTAVYYCASTYYRPSRYDYCGQGTQVTVSS”, the “polyreactivity (PSR sort gate)” value is reported as “high polyreactivity”. In the case of “QVQHVESGGGLFKAGGTLRLSCAASGRTIYPYAMVLYIQAPGKESELVAAIRWSGGSTYYADSVKGRFTISRDNSKNTVYLQMNSLKPVDTAVYYCNADWKSYRGPIVDYWGQGTQVSVSS”, the “polyreactivity (PSR sort gate)” value is reported as “low polyreactivity”. With “QVQHVESGGGLGQAGGSLRLSCAASGIIFPRYKAWYRPAPGKDRELVAAIRWSSDDTNYADSVKGRFTISRDNAKNTVYLQMNSLKPEDTAVYYCAADSYYDRTIQFEFSARTYDYWVQGTQVTVSS” the “polyreactivity (PSR sort gate)” value was “low polyreactivity”. For “QVQHVESGGGLLQAGGSLRLSCAASGITFFEYAMGWYRQAPGKERELVAVITSVGSTNYADSVKGRFTISRDNAKNTVYLQMNSLKPVDTAVYYCNARLVKYRWWYDYYYWGQGTQVTVSS”, the “polyreactivity (PSR sort gate)” value was “low polyreactivity”. With “QVQHVESGGGLVQAAGSLRLICYASGSIFGSYAMGWYRPAPGKERELVAAISSRGSRTYYADSVKGRFTISRDNAKNTVYLQMNSLKPEDTAVYYSNAGALTNYDYWGQGTQVTVSS” the “polyreactivity (PSR sort gate)” value was “high polyreactivity”. With “QVQHVESGGGLVQAAGSLRLSCAASGTIFYWYTMGWYRQARGKERELVATITGSGSSTTYADSVKGRFTISRDNAKNSVYLQMNSLKPEDTAVYYCAKVYYIGIRGEYDYWGQGTQVTVSA” the “polyreactivity (PSR sort gate)” value was “low polyreactivity”. With “QVQHVESGGGLVQAGGNLRLSCPASGRTIYSYTMGWYRQTPGKERELVAAINRSGGRTYYADSVKGRFTISRDNAKNTVYLQMNSLKQEDTAVYYGNALEYYRYDYWGQGTQVTVSS” the “polyreactivity (PSR sort gate)” value was “high polyreactivity”. For “QVQHVESGGGLVQAGGRLSLICSASGGNIKFNAMGWYRQAPGKERELVAAITDGGSTYYADSVKGRFTISRDNAKNTVYLEMNSLKAEDTAVYYCNAEGVSLYGYDSGVDSGEDYWGQGTQVTVSS”, the “polyreactivity (PSR sort gate)” value was “low polyreactivity”. With “QVQHVESGGGLVQAGGSLLLSCAASGSIFASYAMGWYRQAPGKEREFVASISRSGGRTYYADSVKGRFTISRDNAKNTVYLQMKSLKPEDTAVYYCAAQPSSYVYYRQPFHYWGQGTQVTVSS” the “polyreactivity (PSR sort gate)” value was “high polyreactivity”. For “QVQHVESGGGLVQAGGSLRLRCAASGFTFGSYAMGWYRQAPGKERELVASISSAGRTYYADSVKGRITISRDNAKNSVYLQMNSLKPEDTAVYYCNTDARVTIYDYDYWGQGTQVTVSS”, the “polyreactivity (PSR sort gate)” value was “low polyreactivity”. For “QVQHVESGGGLVQAGGSLRLRCAASGITSRYNDMGWSRQAPGKERELVATITWRGVSTYYADSVKGRFTISRDNAKNTVYVQMNSLKPEDTAVYYCAARRPGYYPYKGFDYWGQGTQVTVSS”, the “polyreactivity (PSR sort gate)” value was “high polyreactivity”. For “QVQHVESGGGLVQAGGSLRLRCAASGRTFKKYAMGWYRQAPGKAWELVAAITGSGGSTYYADSVKGRFTFSRDNAKNTVYLQMNRLKPEDTAVYYCAAYAYGVWQSQDGGNYWGQGTQVTVSS”, the “polyreactivity (PSR sort gate)” value was “low polyreactivity”. For “QVQHVESGGGLVQAGGSLRLRCAASGSIFVHNDMGWYRQAPGKERDLVAAISSGSSTNYADSVKGRFTISRDNAKNTVFLQMNSLKPEDTAVYYCAVTSPYSHGYSYWGADSRDYWGQGTQVTVSS”, the “polyreactivity (PSR sort gate)” value was “low polyreactivity”. In the case of “QVQHVESGGGLVQAGGSLRLSCAASGFIFDFNAMGRYRPPPGKERELVATISSDGSTNYADSVKGRFTISRDNAKNTVYLQMNSLKPEDTAVYYCNKDSHKDAGTLPGWWYDYWGQGTQVTVSS”, the “polyreactivity (PSR sort gate)” value is reported as “low polyreactivity”. In the case of “QVQHVESGGGLVQAGGSLRLSCAASGFIFGVYDMGWYRQAPGKERELVAAIDCVGSTYYADSVKGRFTISRDNAKNTVYLQMNSLKPEDTAGYYCNAARSRLYYDKYYYWGQGTQVTVSS”, the “polyreactivity (PSR sort gate)” value is reported as “low polyreactivity”. With “QVQHVESGGGLVQAGGSLRLSCAASGFIFRNYAMGWYRQAPGKERELVAAISSRGGSTYYADSVKGRFTISRDNAKNTVYLQMNRLKPEVTAVYYCARRYFYTYGYWGQGSQVTVSS” the “polyreactivity (PSR sort gate)” value was “high polyreactivity”. With “QVQHVESGGGLVQAGGSLRLSCAASGFIFYDKAMGRYRTAPGKERELVAGITYRTGSTFYADSVKGRFTISRDNAKNTVYLQMISLKPEDTAVFYCAAVRRISWYTPVNTRRYYYWGQGTQVTVSS” the “polyreactivity (PSR sort gate)” value was “high polyreactivity”. With “QVQHVESGGGLVQAGGSLRLSCAASGFIFYIYAMGWYRQAPGKERELVAAITSGGSTYYADSVKGRFTISRDNAKNTVYFQMNSLKPEDTAVFYCNRRSGHVHEYDYWGQGTQVTVSS” the “polyreactivity (PSR sort gate)” value was “low polyreactivity”. With “QVQHVESGGGLVQAGGSLRLSCAASGFIFYKYAMGWYRQAPGKERELVAAISKRGGSTYYADSVKGRFTISRDNAKNTVYLQMNSLKPEDTAVYYCATDGGNSATVRYVASDYWGQGTQVTVSS” the “polyreactivity (PSR sort gate)” value was “high polyreactivity”. In the case of “QVQHVESGGGLVQAGGSLRLSCAASGFNFAYNIMGWYRQAPGKERELVADISGTGSTNYADSVKGRFTISRDNAKNTVYLQMNSLKPEDTAVYYCATSGDRLVWGQGTQVTVSS”, the “polyreactivity (PSR sort gate)” value is reported as “low polyreactivity”. With “QVQHVESGGGLVQAGGSLRLSCAASGFTFSKYGMGWYRQAPGKERELVAAISGSGGNTYYADSVKGRFTISRDNAKNTVYLQMNSLKPEDTAVYYCNAEGWRYYYWYHEYGYWGQGTQVTVSS” the “polyreactivity (PSR sort gate)” value was “low polyreactivity”. In the case of “QVQHVESGGGLVQAGGSLRLSCAASGFTFYGNALGWYRQAPGKERELVAAITSGGSTYYADSVKGRFTISRDNAKNTVYLQMNSLKPDDTAVYYCAADEVLYGYEYWGQGTQVTVSS”, the “polyreactivity (PSR sort gate)” value is reported as “low polyreactivity”.
